Patent publication US20260224711A1, “ENHANCING BRAIN PERMEABILITY AND ACTIVITY OF GLUCOSYLCERAMIDASE (GCase) PROSNA FOR NEURODEGENERATIVE DISEASES” (NORTHWESTERN UNIVERSITY, priority 2023, published 2026)
“Also recorded” adds a separate entry of the source. Read-outs that look alike come from different tables or passages of the source.

B1: Bivalent ProSNA: GCase protein functionalized with the bivalent ligand (folate modified transferrin aptamer), roughly 14-18 ligands per protein (conjugate, UniProt P04062 40-536, looked up)
Lysosomal acid …: ARPCIPKSFGYSSVVCVCNATYCDSFDPPTFPALGTFSRYESTRSGRRMELSMGPIQANHTGTGLLLTLQPEQKFQKVKGFGGAMTDAAALNILALSPPAQNLLLKSYFSEEGIGYNIIRVPMASCDFSIRTYTYADTPDDFQLHNFSLPEEDTKLKIPLIHRALQLAQRPVSLLASPWTSPTWLKTNGAVNGKGSLKGQPGDIYHQTWARYFVKFLDAYAEHKLQFWAVTAENEPSAGLLSGYPFQCLGFTPEHQRDFIARDLGPTLANSTHHNVRLLMLDDQRLLLPHWAKVVLTDPEAAKYVHGIAVHWYLDFLAPAKATLGETHRLFPNTMLFASEACVGSKFWEQSVRLGSWDRGMQYSHSIITNLLYHVVGWTDWNLALNPEGGPNWVRNFVDSPIIVDITKDTFYKQPMFYHLGHFSKFIPEGSQRVGLVASQKNDLDAVALMHPDGSAVVVVLNRSSKDVPLTIKDPAVGFLETISPGYSIHTYLWRRQ
modifications: folate-modified transferrin aptamer shell, 14-18 ligands
notes: GCase protein functionalized with the bivalent ligand (folate modified transferrin aptamer), roughly 14-18 ligands per protein
B2: PEGylated protein: GCase after PEGylation, comparator in the activity assay (conjugate, UniProt P04062 40-536, looked up)
Lysosomal acid …: B1 Lysosomal acid …
modifications: PEGylated
B3: Univalent ProSNA: GCase protein functionalized with only the transferrin aptamer (conjugate, UniProt P04062 40-536, looked up)
Lysosomal acid …: B1 Lysosomal acid …
modifications: transferrin aptamer DNA shell

What was measured:
GCase ProSNA constructs = molecular target: T1, GCase ProSNA constructs (Homo sapiens, UniProt P04062); conditions: co-incubation / co-assembly of activator with GCase ProSNA construct
T1 sequence (P04062 40-536): B1 Lysosomal acid …
From the text: Next, the assay is repeated with generated GCase ProSNA constructs to investigate whether some of the activity lost during activation can be recovered.

[1] = test system: α-synuclein protein aggregates; conditions: cited from earlier work
native GCase protein = native GCase protein (Homo sapiens, UniProt P04062); conditions: GCase 1.9 mg/mL, quetiapine introduced 30 minutes prior to substrate, FIG. 10
Procedure: The purpose behind enzyme replacement therapy (ERT) is to replace protein that is either absent or dysregulated. […] This assay was completed using the same fluorometric kit described above, with quetiapine being introduced 30 minutes prior to the GCase substrate.

[2] = mouse, in vivo
Procedure: Fluorescently labeled constructs are administered to mice by different routes of injection including intravenously by way of retroorbital or tail vein injection, as well as intrathecally. At set time points the mice are imaged using IVIS to track the biodistribution patterns.

[3] = test system: neurons (dopaminergic), astrocytes, and microglia; experiment: flow cytometry uptake into neuronal cell types; type: cell-based
From the text: The ability of the GCase ProSNA constructs to be taken up into cells will be assessed. To investigate their uptake potential, flow cytometry is used as a method for determining the percent uptake of the constructs compared to control groups (unmodified GCase protein, linear bivalent DNA ligand, GCase-Transferrin aptamer, and GCase-Folic Acid). Constructs are synthesized as described previously, including the fluorescent tagging the GCase protein core as well as including a Cyanine3 dye into the aptamer sequence (Folate-SEQ ID NO: 1-Cy3-DBCO dT). Once prepared, the constructs are used to treat different mono-populations of different neuronal cell types, including neurons (dopaminergic), astrocytes, and microglia, to evaluate their uptake ability. In all cases, a live dead stain is used to determine percent uptake in viable populations. Furthermore, uptake across different time points is assessed to determine the rates at which the constructs are endocytosed and processed by the different cell types.

GCase = molecular target: T2, GCase (Homo sapiens, UniProt P04062); experiment: fluorometric GCase activity assay kit (Abcam) on GCase constructs; type: biochemical; conditions: constructs at 0.24 mg/mL, GCase substrate 30 minutes at 37° C., FIG. 9; for protein activity after functionalization, compared with unmodified GCase: fluorescence Ex/Em=360/445
T2 construct: purchased GenScript; host or cells: CHO expression system
T2 sequence (P04062 40-536): B1 Lysosomal acid …
Procedure: Upon interaction with active GCase, this substrate releases a fluorophore detectable using a plate reader at Ex/Em=360/445 nm.
Following the synthesis process, a comprehensive investigation into the impact of synthesis on protein activity was conducted. To assess this, we employed a fluorometric GCase activity assay kit (Abcam), using a synthetic substrate-4-Methylumbelliferyl β-D-glucopyranoside. Upon interaction with active GCase, this substrate releases a fluorophore detectable using a plate reader at Ex/Em=360/445 nm. The focus extended to evaluating the effects of PEGylation on GCase, along with modifications involving univalent (sole presence of the transferrin aptamer) or bivalent (co-presence of both transferrin and folate) DNA ligands. By using the protocol outlined in this assay, the aim was to understand and analyze the variations in protein activity resulting from these modifications. Briefly, GCase constructs (all at 0.24 mg/mL) were reacted with GCase substrate for 30 minutes at 37° C. They were then measured for fluorescence intensity at Ex/Em=360/445. […] This was a key finding as PEGylation is currently one of the most used methods to improve protein delivery.

[4] = test system: Human endothelial cells cultured alone or with microglial and astrocyte cells on a transwell membrane
Procedure: The ability of the construct to pass the BBB is also assessed. […] To investigate this an in vitro transwell model of transcytosis is used. Human endothelial cells are cultured alone or in concert with microglial and astrocyte cells on a transwell membrane. Once confluent, the constructs are added to the apical side of the insert and their transcytosis through the cell monolayer to the basolateral side of the insert is quantified by fluorescence.

| Molecule | GCase activity of ProSNA constructs with small molecule activator (GCase ProSNA constructs) | protein activity after functionalization, compared with unmodified GCase (GCase) | protein activity, PEGylated protein versus ProSNA constructs (GCase) | protein activity, univalent versus bivalent constructs (GCase) | further results |
| --- | --- | --- | --- | --- | --- |
| OCCOCCN1CCN(C2=Nc3ccccc3Sc3ccccc32)CC1 [quetiapine] | elevation in enzyme activity; also recorded: partial recovery of GCase activity | – | – | – | presence of α-synuclein protein aggregates [1]: reduce the presence of α-synuclein protein aggregates; activity of the native GCase protein (native GCase protein; 5 μM quetiapine): sufficient to increase the activity of the native protein; activity of the native GCase protein (native GCase protein; 10 μM quetiapine): sufficient to increase the activity of the native protein |
| Nc1c(Br)cc(Br)cc1CN[C@H]1CC[C@H](O)CC1 [Ambroxol] | elevation in enzyme activity; also recorded: partial recovery of GCase activity | – | – | – | – |
| B1 | – | functionalization does impact protein activity; also recorded: reduction of overall activity | significant increase in activity | no significant difference between the univalent and bivalent variations; also recorded: no significant difference between the uni- and bivalent constructs | biodistribution (localization to the brain space) [2]: localize to the brain space in higher concentrations when compared to control groups; rates of uptake across time points ([3]; different time points): highest at shorter time points; uptake into cells compared to control groups ([3]; neurons (dopaminergic), astrocytes, microglia, flow cytometry): enhance its uptake into all cell types; rate of transcytosis across the blood-brain barrier [4]: significant increase in the rate of transcytosis across the blood-brain barrier was observed; rate of transcytosis compared to control groups [4]: higher rate of transcytosis when compared to control groups |
| B2 | – | – | significant increase in activity when comparing the PEGylated protein to both ProSNA constructs | – | – |
| B3 | – | functionalization does impact protein activity | significant increase in activity | no significant difference between the univalent and bivalent variations; also recorded: no significant difference between the uni- and bivalent constructs | – |
